Consider two molecules from patent US20090124555A1, “USE OF HISTOGRANIN AND HISTOGRANIN-LIKE COMPOUNDS AS INHIBITORS OF P2X7 RECEPTOR FUNCTION AND AS ANTI-ARTHRITIC AGENTS” (priority 2005, published 2009).

Entries after “also recorded” stand apart in the source; their conditions may differ.

Assay [1] deals with T1, P2X7 receptor (Mus musculus, UniProt Q9Z1M0).
T1 construct: from tissue; host or cells: living mice; peritoneal cavity (lavage fluid analysed)
T1 sequence (Q9Z1M0 1-595): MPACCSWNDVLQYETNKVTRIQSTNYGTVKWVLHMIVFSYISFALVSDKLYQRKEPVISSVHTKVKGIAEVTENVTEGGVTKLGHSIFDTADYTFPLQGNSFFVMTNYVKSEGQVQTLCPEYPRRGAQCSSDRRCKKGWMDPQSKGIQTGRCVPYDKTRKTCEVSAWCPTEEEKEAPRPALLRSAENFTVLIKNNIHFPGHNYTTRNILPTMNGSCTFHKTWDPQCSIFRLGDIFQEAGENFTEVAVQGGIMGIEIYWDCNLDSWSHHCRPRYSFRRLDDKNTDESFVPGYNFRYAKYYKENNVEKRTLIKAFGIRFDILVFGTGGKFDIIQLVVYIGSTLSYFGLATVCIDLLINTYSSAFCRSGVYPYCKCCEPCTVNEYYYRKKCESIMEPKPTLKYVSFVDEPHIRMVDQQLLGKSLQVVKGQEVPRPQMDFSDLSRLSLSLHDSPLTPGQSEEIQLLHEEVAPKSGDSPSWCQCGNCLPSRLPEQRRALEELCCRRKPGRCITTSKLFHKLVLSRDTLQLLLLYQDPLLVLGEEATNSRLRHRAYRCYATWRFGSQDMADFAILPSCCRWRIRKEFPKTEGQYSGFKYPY
As to the kind of experiment: ATP-induced extracellular release of IL-1.beta, IL-1.alpha and IL-6 in vivo (peritoneal lavage of LPS-primed mice). The following applies: 0.1 mg and 0.3 mg i.p. 15 min before ATP, FIG. 6B. Here is the method: Groups of mice were injected intraperitoneally (i.p.) with 50 μg of LPS. Two hours after this LPS injection, mice were injected i.p. with either PBS or ATP (5 mM, adjusted to pH 7), or with HN compounds (0.1 mg and 0.3 mg) 15 minutes before ATP injection. Mice were sacrificed 30 minutes (IL-1.beta and IL-1.alpha) or 120 minutes (IL-6) after the ATP or PBS injection and peritoneal cavities were lavaged each with 3 ml PBS. Samples of peritoneal lavages were centrifuged, cell-free supernatants were collected and tested for the presence of IL-1.beta, IL-1.alpha and IL-6 using ELISA (R&D Systems, Minneapolis, Minn., and Biosource, Camarillo, Calif., respectively).

Assay [2] deals with DBA/1 mice with collagen-induced arthritis. As to the kind of experiment: Collagen-induced arthritis (CIA) in mice, clinical and histologic scoring. The following applies: 0.3 mg i.p. daily before LPS and onset. Format: in vivo.
Experimental: For induction of arthritis, DBA/1 mice (The Jackson Laboratory, Bar Harbor, Me.) were immunized intradermally at the base of the tail with bovine type II collagen (100 μg; Chondrex, Richmond, Wash.) emulsified in Freund's complete adjuvant (Chondrex, Richmond, Wash.). On day 21, the animals were boosted with an intradermal injection of 100 μg type II collagen. To synchronize the onset of arthritis, mice were subsequently injected i.p. with LPS (50 μg) (Yoshino et al. (2000) J. Immunol. 163:3417-3422).
To test the subject of the present invention, mice were divided in various groups: mice injected with saline (negative control), mice injected with collagen and LPS (positive control), mice injected with collagen and treated i.p. daily with HN compound starting 2 days before i.p. injection of LPS and onset of arthritis, and mice injected with collagen and LPS, and treated i.p. daily with RN compound after the onset of arthritis as monitored by the presence of a positive clinical score index as described below.
The incidence of arthritis was monitored daily by macroscopic clinical scoring on a 0-3 scale where 0=normal: 1=slight swelling and erythema. […] Limb swelling was also measured with calipers (Wallace et al. (1999) J. Immunol. 162:5547-5555). […] Cartilage destruction was evaluated as the extent of loss of glycosaminoglycan matrix, death of chondrocytes, thinning and destruction. […]
Assay [3] deals with T2, P2X7 receptor (Rattus norvegicus, UniProt Q64663).
T2 construct: Alveolar macrophages (AM) were recovered from normal rats by bronchoalveolar lavage; endogenous in cells; host or cells: primary alveolar macrophages from male Wistar rats (bronchoalveolar lavage)
T2 sequence (Q64663 1-595): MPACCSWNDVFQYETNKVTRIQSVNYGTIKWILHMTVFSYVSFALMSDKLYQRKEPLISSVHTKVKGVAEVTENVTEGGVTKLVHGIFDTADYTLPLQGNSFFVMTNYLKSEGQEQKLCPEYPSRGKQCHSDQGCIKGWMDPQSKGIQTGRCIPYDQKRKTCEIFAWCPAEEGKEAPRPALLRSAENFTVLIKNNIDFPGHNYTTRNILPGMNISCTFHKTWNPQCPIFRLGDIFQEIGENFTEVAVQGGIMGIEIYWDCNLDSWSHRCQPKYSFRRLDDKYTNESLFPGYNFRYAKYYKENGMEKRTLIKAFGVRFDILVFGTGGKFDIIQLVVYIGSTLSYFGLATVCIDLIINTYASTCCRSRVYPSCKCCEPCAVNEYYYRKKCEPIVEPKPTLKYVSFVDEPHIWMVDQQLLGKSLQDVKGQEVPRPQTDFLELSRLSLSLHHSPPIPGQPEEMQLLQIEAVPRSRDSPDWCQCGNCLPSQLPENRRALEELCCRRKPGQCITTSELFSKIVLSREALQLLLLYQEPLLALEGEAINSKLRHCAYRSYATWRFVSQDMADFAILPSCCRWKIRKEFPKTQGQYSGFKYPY
As to the kind of experiment: ATP-induced membrane permeabilization and pore formation (ethidium bromide uptake) in alveolar macrophages. Format: cell-based. The following applies: rat alveolar macrophages, FIG. 1A. Here is the method:
Alveolar macrophages (AM) were recovered from normal rats by bronchoalveolar lavage (BAL) as described previously (Lemaire (1991) Am. J. Pathol. 138:487-495). The lungs were lavaged with 7 ml-aliquots of sterile phosphate buffered saline (pH 7.4; Wisent, St. Bruno, QC), and BAL cells were obtained by centrifugation at 200×g at 4° C. for 5 minutes. The cells were resuspended in RPMI 1640 medium (Wisent, St-Bruno, QC) supplemented with 0.5% dialysed fetal bovine serum (Wisent. St-Bruno, QC), 0.005% gentamycin (Schering Canada Inc. Pointe Claire. QC) and 0.8% HEPES (Sigma Chemical Co., St-Louis, MO) which will henceforth be referred to as complete culture medium (CM).
Freshly isolated AM (1×10^5) were incubated in 200 μl complete medium in 96 wells tissue culture plates for 24 h. Following centrifugation, medium was replaced with saline solution containing 125 mM NaCl, 5 mM KCL, 1 mM MgSO4, 1 mM Na2HPO4, 5.5 mM glucose, 5 mM NaHCO3, 1 mM CaCl2 and 20 mM Hepes, pH 7.6. Ethidium bromide was added to a final concentration of 20 μM and AM were stimulated with ATP (5 mM, Sigma), 3′-O-(4-benzoylbenzoyl ATP (BzATP) (0.5 mM, Molecular Probes) or uridine 5′-triphosphate (UTP) (Sigma), at 37° C. for 5 minutes. In some experiments, cells were pre-treated with oxidized ATP (oATP, 0.1 mM, Sigma) for 2 h or Brilliant Blue G (BBG, 5×10^−9M, Sigma) for 5 minutes, or HN compounds for 5 minutes before ATP stimulation. After ATP stimulation, the plate was centrifuged (200×g, 1 minute), culture supernatants were replaced with fresh buffer and the fluorescence was analyzed using a Zeiss Axiovert S1100 TV inverted microscope equipped with a rhodamine filter and a 32× objective. Images were captured and analysed with the Northern Eclipse image analysis software. Data are expressed as percentage of cells that become permeabilized to ethidium bromide.

The target in assay [4] is T1, P2X7 receptor. Put plainly: P2X7 receptor-stimulated IL-1.beta release ex vivo, blood-based IL-1.beta assay in CIA mice. The following applies: blood of i.p. treated CIA mice, FIG. 12C. Here is the method: P2X7 receptor-stimulated IL-1 release ex vivo was performed with a blood-based IL-1.beta assay (Perregaux et al. (2000) J. Immunol. 165:4615-4623). Blood was collected from mice in each group in heparin-containing tubes. A total of 120 μl of blood was placed into an individual well of a 96-well plate and diluted with 120 μl RPMI 1640 medium containing 25 mM HEPES and 1% dialysed FBS. The diluted blood samples were incubated for 3 h in the presence and absence of LPS (1 μg/ml) at 37° C. in 5% CO2. ATP (5 mM, pH 7) was then added as a secretion stimulus and the mixtures were incubated at 37° C. for an additional 2 h. The 96-well plates were then centrifuged at 700×g for 10 min at 4° C., and the resulting plasma samples were collected and assayed for their IL-1.beta content by ELISA (R&D Systems, Minneapolis, Minn.).

On to `N=C(N)NCCC[C@H](Nc1ccccc1NC(=O)Cc1ccc(O)cc1)C(N)=O` [C-11, N-5-guanidinopentanamide-(2S)-yl-2-N (p-hydroxyphenylacetyl)phenylenediamine], for which, in assay [1], the “IL-1.beta in peritoneal lavage in response to ATP, various HN compounds” value is “inactive; also recorded: did not inhibit”. For the same molecule, the arthritis score index entry in assay [2] (FIG. 12A) is on record as “did not reduce”. Also, in assay [2] (both knees, FIG. 12B), the histological score index result was “did not reduce”.
As for “cyclic (-Gly-Ala-Tyr-D-Arg-) (GAYR; HELM PEPTIDE1{G.A.Y.[dR]}$PEPTIDE1,PEPTIDE1,1:R1-4:R2$$$V2.0; SMILES C[C@@H]1NC(=O)CNC(=O)[C@@H](CCCNC(=N)N)NC(=O)[C@H](Cc2ccc(O)cc2)NC1=O) [C-9]”, in assay [3] (ATP 5 mM, 5 min, compound 10^−9M), the “inhibition of ATP-induced pore formation (ethidium bromide uptake)” value is given as “inhibited significantly”. For the same molecule, the “inhibition of BzATP-induced pore formation” value in assay [3] (BzATP 0.5 mM) was “inhibit”. For the same molecule, the “IL-1.beta in peritoneal lavage in response to ATP, various HN compounds” value in assay [1] is given as “reduced levels”. Moreover, the “ATP-induced IL-1.beta release in peripheral blood” value in assay [4] (ATP without LPS ex vivo) is reported as “inhibit”. For the same molecule, the “LPS+ATP-induced IL-1.beta release in peripheral blood” value in assay [4] (LPS 3 h then ATP 2 h ex vivo) was “inhibit”.
